# Positions count from the first letter of the chain named. Names may count otherwise.
# T1: TNFR1 (Homo sapiens, UniProt P19438)
# T1 chain: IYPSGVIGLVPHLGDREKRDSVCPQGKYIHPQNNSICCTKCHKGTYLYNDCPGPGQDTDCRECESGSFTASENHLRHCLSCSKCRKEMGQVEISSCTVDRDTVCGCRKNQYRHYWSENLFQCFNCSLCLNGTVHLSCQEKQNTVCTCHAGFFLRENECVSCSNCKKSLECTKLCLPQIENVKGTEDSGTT
# B1: L25Y (designed binder)
# chain: SMEEEVEKAAKEYEKKKKEAIEKHYEKLKAKDKEAAERFLKELEEAAKEYAKDEAKTMSEEEAKRRAKKYKEKVLLSELSEEEQKEIKEAEEKLVRTILKYVEEAAK
# B2: Y101Q (designed binder)
# chain: B1 chain with Y25L, Y101Q
# B3: E14N (designed binder)
# chain: B1 chain with E14N, Y25L
# B4: K15A (designed binder)
# chain: B1 chain with K15A, Y25L
# B5: E81L (designed binder)
# chain: B1 chain with Y25L, E81L
# B6: K88L (designed binder)
# chain: B1 chain with Y25L, K88L
# B7: E62F (designed binder)
# chain: B1 chain with Y25L, E62F
# B8: E3I (designed binder)
# chain: B1 chain with E3I, Y25L
# B9: K100R (designed binder)
# chain: B1 chain with Y25L, K100R
# B10: A9E (designed binder)
# chain: B1 chain with A9E, Y25L
# B11: A36M (designed binder)
# chain: B1 chain with Y25L, A36M
# B12: S77T (designed binder)
# chain: B1 chain with Y25L, S77T
# B13: A90W (designed binder)
# chain: B1 chain with Y25L, A90W
# B14: E45T (designed binder)
# chain: B1 chain with Y25L, E45T
# B15: M58I (designed binder)
# chain: B1 chain with Y25L, M58I
# B16: A90K (designed binder)
# chain: B1 chain with Y25L, A90K
# B17: K16H (designed binder)
# chain: B1 chain with K16H, Y25L
# B18: A10W (designed binder)
# chain: B1 chain with A10W, Y25L
# B19: E62S (designed binder)
# chain: B1 chain with Y25L, E62S
# B20: L40S (designed binder)
# chain: B1 chain with Y25L, L40S
# B21: T97D (designed binder)
# chain: B1 chain with Y25L, T97D
# B22: E104Y (designed binder)
# chain: B1 chain with Y25L, E104Y
# B23: E72G (designed binder)
# chain: B1 chain with Y25L, E72G
# B24: K17L (designed binder)
# chain: B1 chain with K17L, Y25L
# B25: M58W (designed binder)
# chain: B1 chain with Y25L, M58W
# B26: K8T (designed binder)
# chain: B1 chain with K8T, Y25L
# B27: I98E (designed binder)
# chain: B1 chain with Y25L, I98E
# B28: E26R (designed binder)
# chain: B1 chain with Y25L, E26R
# B29: L99R (designed binder)
# chain: B1 chain with Y25L, L99R
# B30: I98R (designed binder)
# chain: B1 chain with Y25L, I98R
# B31: K52R (designed binder)
# chain: B1 chain with Y25L, K52R
# B32: S80N (designed binder)
# chain: B1 chain with Y25L, S80N
# B33: K27F (designed binder)
# chain: B1 chain with Y25L, K27F
# B34: V74N (designed binder)
# chain: B1 chain with Y25L, V74N
# B35: T97L (designed binder)
# chain: B1 chain with Y25L, T97L
# B36: K29L (designed binder)
# chain: B1 chain with Y25L, K29L
# B37: E81D (designed binder)
# chain: B1 chain with Y25L, E81D
# B38: A47G (designed binder)
# chain: B1 chain with Y25L, A47G
# B39: E83K (designed binder)
# chain: B1 chain with Y25L, E83K
# B40: A51I (designed binder)
# chain: B1 chain with Y25L, A51I
# B41: E42V (designed binder)
# chain: B1 chain with Y25L, E42V
# B42: E103S (designed binder)
# chain: B1 chain with Y25L, E103S
# B43: K8W (designed binder)
# chain: B1 chain with K8W, Y25L
# B44: Q84A (designed binder)
# chain: B1 chain with Y25L, Q84A
# B45: E54D (designed binder)
# chain: B1 chain with Y25L, E54D
# B46: A10K (designed binder)
# chain: B1 chain with A10K, Y25L
# B47: K8H (designed binder)
# chain: B1 chain with K8H, Y25L
# B48: K31E (designed binder)
# chain: B1 chain with Y25L, K31E
# B49: L99K (designed binder)
# chain: B1 chain with Y25L, L99K
# B50: K41H (designed binder)
# chain: B1 chain with Y25L, K41H
# B51: K11V (designed binder)
# chain: B1 chain with K11V, Y25L
# B52: K88C (designed binder)
# chain: B1 chain with Y25L, K88C
# B53: K69I (designed binder)
# chain: B1 chain with Y25L, K69I
# B54: E49K (designed binder)
# chain: B1 chain with Y25L, E49K
# B55: K27Q (designed binder)
# chain: B1 chain with Y25L, K27Q
# B56: E14S (designed binder)
# chain: B1 chain with E14S, Y25L
# B57: K88I (designed binder)
# chain: B1 chain with Y25L, K88I
# B58: A20M (designed binder)
# chain: B1 chain with A20M, Y25L
# B59: E72Y (designed binder)
# chain: B1 chain with Y25L, E72Y
# Biological target: T1, TNFR1
# Assay: yeast display SC50
row,apparent Kd (screen),Binder
1,0.446 nM,B1
2,1.27 nM,B2
3,5.31 nM,B3
4,0.956 nM,B4
5,0.653 nM,B5
6,0.49 nM,B6
7,0.446 nM,B7
8,12.5 nM,B8
9,1.27 nM,B9
10,0.446 nM,B10
11,0.446 nM,B11
12,2.25 nM,B12
13,0.49 nM,B13
14,2.73 nM,B14
15,6.43 nM,B15
16,0.956 nM,B16
17,0.446 nM,B17
18,3 nM,B18
19,0.49 nM,B19
20,0.446 nM,B20

row,apparent Kd (screen),Binder
1,0.446 nM,B21
2,0.653 nM,B22
3,1.54 nM,B23
4,1.69 nM,B24
5,18.3 nM,B25
6,1.16 nM,B26
7,4.39 nM,B27
8,0.593 nM,B28
9,12.5 nM,B29
10,1.4 nM,B30
11,0.49 nM,B31
12,2.73 nM,B32
13,0.49 nM,B33
14,16.7 nM,B34
15,1.69 nM,B35
16,0.79 nM,B36
17,1.69 nM,B37
18,0.593 nM,B38
19,0.593 nM,B39
20,12.5 nM,B40

row,apparent Kd (screen),Binder
1,1.16 nM,B41
2,0.49 nM,B42
3,1.54 nM,B43
4,11.4 nM,B44
5,20.2 nM,B45
6,0.49 nM,B46
7,0.956 nM,B47
8,1.05 nM,B48
9,7.78 nM,B49
10,0.593 nM,B50
11,0.593 nM,B51
12,0.446 nM,B52
13,0.446 nM,B53
14,10.4 nM,B54
15,0.593 nM,B55
16,7.07 nM,B56
17,0.446 nM,B57
18,0.446 nM,B58
19,1.4 nM,B59
